These results are taken from the nanobody polyreactivity screen of Harvey et al. (2022).

The series is described as follows: yeast display, Sf9 membrane polyspecificity reagent, FACS + sequencing; frameworks hold sequencing errors. An outline of the steps:
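Using colony PCR, genes from sorted yeast display clones were amplified, then sequenced on MiSeq at 2 × 250 and filtered by CDR length. The clones had been stained with 10% biotinylated, detergent-solubilized Sf9 membrane reagent for 1 hour at 4 °C and sorted by FACS into low and high (top ~1%) gates on anti-HA and streptavidin fluorescence. Polyreactivity labels come from the gate of origin.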
Turning to “QVQLVETGGGLVQAGGTLRLSCAASGRTFSRNAMGCDRPAPGKERELVAAITSGGGTYYADSVKGRFTISRDNAKNTVYLQMNSLKPEDTAVYYCNKKTSAGRVDYWGQGTQVTVSS”, the “polyreactivity (PSR sort gate)” value is recorded as “high polyreactivity”.

Consider “QVQLVETGGGLVQAGGTLRLSCADSGSIYEDNAKGWYRQAPGKERELDAAITWSGDSTYYADSVKGRFTISRDTEKNTVYLQMNSLKPEDTAVYYCNTYRIFCYSRYYAGYDYWGQGTQVTVSS”, for which the “polyreactivity (PSR sort gate)” value was “low polyreactivity”.

With “QVQLVETGRGLVQAGGSLRISCAPCGFTFWRNAMGGYRQAPGKERELVAAINWSGGSPYYADSVKGRFTISRDNAMNTVYLQINSRKADDTAVYYCNRRGQYTFWPIHEYWGQGTQVTVSS”, the “polyreactivity (PSR sort gate)” value was “high polyreactivity”.

Regarding “QVQLVETGRGLVQAGGSLRLICAASGRTFGYYAMGWYRQAPGKEREFVAAISHSAGSTSYADSVKGRFTISRDNAKNTVYLQMNSLKPEDTAVFYFAAEICYLSVPRYDYWGQGTQVTVSS”, the “polyreactivity (PSR sort gate)” value was “low polyreactivity”.

Turning to “QVQLVETGRGLVQAGGSLRLSCAASGLTFKFNAMGWYRQAPGKEREFVAAISRSGGRTYYAESVKGRFTISRDNAKNTVYFQMNSLKPEDTAVYFCADEEIVYYPVLFEYDYWGQGTQVTASS”, the “polyreactivity (PSR sort gate)” value is given as “high polyreactivity”.

As to “QVQLVETGRGLVQAGGSLRLSCAHSGRTFFSYAMGWYRQAPGKEREFVAAITGGGTYYADSVKRRFTISSDNAKNTVYLHMNSLKPEDTAVYYCAAAKRGTDYLSSFWMDYWGQVTQVTVSS”, the “polyreactivity (PSR sort gate)” value is reported as “low polyreactivity”.

On to “QVQLVETGVGIVQAGGSLRLSCASSGSNCPLYAMGWYRQAPGKEREFVAAIRWIGGSTYYADSVKRRFTNSRDYAKNSVYLQMISLKPVDTAVYYCAAVYVVSAFDYWGQGTQVSVSS”, for which the “polyreactivity (PSR sort gate)” value is “low polyreactivity”.

“QVQLVETGVGLVKAGGSLRLSSAASGYIFYYYAMGWYRQERGKERELVAAISTSDTRTFYADSVKGRFSISRDNAKNTVYLQMNSLKPEDTAVYYCAASLYICGPNYGYEYWGLGTQVTVSS”: the “polyreactivity (PSR sort gate)” value is given as “low polyreactivity”.

For the sequence “QVQLVETGVGLVQAGGSLRLSCAASGLTFPNYDMGWYRQAPGKEMELVAAISSSGGSTYYADSVKGRFTISRDNAKNTVYLQMNSLKPEDTAVYYCATEWSYYNYGYDYWGQGTQVTVSS”, the “polyreactivity (PSR sort gate)” value is reported as “low polyreactivity”.

Take “QVQLVETGVGLVQAGGSLRLSSAASGSIFFTYTMGRYRQAPGKERELVATITYGGGGTYYADSVKGRFTISRDNAKNTVYLQMNSLKAEDTAVYYCAKDHATVLSRWYRGMDYWGQGTQVTVSS”: the “polyreactivity (PSR sort gate)” value was “low polyreactivity”.

Consider “QVQLVETRGGLVQAGGILRFSCAASGFTFSSNDMGWYRQAPAKEREFVAVIDSGDITNYADSVKGRFTISRDNAKNTVYLQMNSLKPEDTAVYYCAARYYAAGIGSRYDYWGQGTQVTVSS”, for which the “polyreactivity (PSR sort gate)” value is on record as “high polyreactivity”.

For the sequence “QVQLVETVGGLVQAGGSLRLRCAASGSIFLYNAMGWYRQAPGKERELFAVINGRGGTYYADSVKGRFTISRDNAKNTVYLQINSLKPEDTAVYYCATGYTPSAWYDSVRFEDRDSWGQGTQVTVSS”, the “polyreactivity (PSR sort gate)” value is “low polyreactivity”.

Turning to “QVQLVETVGGLVQAGGSLRLSCAASGSTFYRYAMGWYRQAPGKERELVAAISSSGGSTYYADSVKGRFTISRDNAKNSVYLQMNSLKPEDSAVYYCNAARNFRYDYWGQGTQVTVSS”, the “polyreactivity (PSR sort gate)” value was “high polyreactivity”.

Consider “QVQLVETWGGLVQAGGTLRLSCAASGSIFSPYAMGWYRQAPGKERELVAAISRNGGTTYYADSVKGRFTISRDNAKNTVYLQMNSLKPEDTAVYYCARLYYTQKDSKTGYGYWGQGTQVTVSS”, for which the “polyreactivity (PSR sort gate)” value is given as “high polyreactivity”.

Consider “QVQLVEYVGGLVQAGGSLRLSCAASGRIFQYYARGWYRQAPGKERELVAAINSSGGRTYYADSVKGRFTISRDNAKNTVYLQMNSLKPEDTAVYDCNAVLSTRGMDYWGQGTQVTVSS”, for which the “polyreactivity (PSR sort gate)” value is on record as “high polyreactivity”.

Take “QVQLVEYWGALVQAGGTLRLSCAASGRIFGTNALAWNRQAPGKERELEATITRGGGNTYYADSVKGRFTISRDKAKYTVYLQMNSLKPEDTAVYYCAAKFHRFAWYSHYDDWGQGSQVTVSS”: the “polyreactivity (PSR sort gate)” value is reported as “low polyreactivity”.

Take “QVQLVGSGGGLLQAGASLRLSCAASGRIFRAYAMGWYRQAPGKERELVAAISWRSGSTYYADSVKGRFTISRDNAKTTVYLQMNSLKPEDTAVYYCAAYTNRVVNGYGYWGQGTQVTVSS”: the “polyreactivity (PSR sort gate)” value is listed as “high polyreactivity”.

In the case of “QVQLVKSGGGLVQAGGSLRLSCAASGIIFTDYGMGWYRQAPGKERELVAVISRGGTTKYADSVKGRFTISRDNAKNTVYLQMNSLQPEDTAVYYCAARTWAGRWYGLDFWGQGTQVTVSS”, the “polyreactivity (PSR sort gate)” value is “high polyreactivity”.

“QVQLVKSGGGLVQAGGSLRLSCAASGSIFGYNTKGWYRQAPGKERELVATITYRGGSTYYADSVKGRFTISRDNAKNTVYLQMNRLKPEDTAVYYCARRVTRYPDTTWVSAGDYWGQGTQVTVSS”: the “polyreactivity (PSR sort gate)” value is listed as “high polyreactivity”.

Take “QVQLVKSGGGLVQAGGSLRLSCAASGSTFYNAMGWYRQAPGKERELVAAISIGGSTYYADSVKGRFTNSRDNAKNTVYLQMNSLKPEDTAVYYCNTETGPSPVPVYDTEFDSWGQGTQVTVSS”: the “polyreactivity (PSR sort gate)” value is reported as “low polyreactivity”.

Consider “QVQLVQAGGGLVQAGGILRLSCAASGFTFQEYAMGWYRQAPGKAREFVAAITYSGGSTYADSVKGRFTISRDNAKNTVYLQMNSLKPEDTAVYYCNAQVYYSVRGYPYGYYRNDYWGQGTQVTVSS”, for which the “polyreactivity (PSR sort gate)” value is on record as “low polyreactivity”.

As for “QVQLVQSCRVLLQARGSHTLSCADSGTTFGINANGCYTHSPGKERELVAAITFISGSTNYADSVKGRFTISRDNAKNTVYLQMNSLKPEDTAVYYCAADSVYYAGYDVDYWGQGTQVTVSS”, the “polyreactivity (PSR sort gate)” value was “low polyreactivity”.

As for “QVQLVQSGGGLVQAGGRLRLSSAASGRTFEPNAMGWYRQAPGKERELVAAITNGGSTSYADSVKGRFTISRDNAKNSVYLQMNSLKPEDTAVYDFAGDLGRNLLHTYYYWGQGTQVTVSS”, the “polyreactivity (PSR sort gate)” value is listed as “low polyreactivity”.

“QVQLVQSGGGLVQAGGSLRLICAASGRTFYGNAMGWYRQAPGKERELVAAISRSGGRTYYADSVKGRFTISRDNAKNTVYLQMISLKTEDTAVYYCAKDYYYPSHTYGYWGQGTQVTVST”: the “polyreactivity (PSR sort gate)” value was “high polyreactivity”.

For the sequence “QVQLVQSGGGLVQAGGSLRLISAASGSIFRYNAMGWYRHAPGKEREFVAAITRSGGSTYADSVKGRFTISRDNAKNTLYLQIHSLKPEDTAVYYCAATFKWYSHSKPRFDYWGHGTQVTVSS”, the “polyreactivity (PSR sort gate)” value is “low polyreactivity”.

For the sequence “QVQLVQSGGGLVQAGGSLRLSCAASGFIIWDNAMGCYRQAPGKERELVAAISDSGGDTYYADSVKGRFTISRDNAKNTVYLQMNSLKPEDTAVYYCASDVELWVFRGDQYDYWGQGTQVTVSS”, the “polyreactivity (PSR sort gate)” value was “low polyreactivity”.

In the case of “QVQLVQSGGGLVQAGGSLRLSCAASGGTFQHNTMGWYRQAPGKEWQLVAAIRGSDGSTYYADSVKGRFTISRDNAKNTVYLQMNSLKPEDTAVYYCNRAYTASYIPGVGFWGQGTQVTVSS”, the “polyreactivity (PSR sort gate)” value is listed as “high polyreactivity”.

For the sequence “QVQLVQSGGGLVQAGGSLRLSCAASGITFWGNAMGSYRQAPGKEREFIARINWSGGRTYYAESVKGRFTISRDNEKNNVYLQMNSLKPEDTAVYYCAATSLIYGYRTYDYWGQGTQVTVSS”, the “polyreactivity (PSR sort gate)” value was “high polyreactivity”.

Regarding “QVQLVQSGGGLVQAGGSLRLSCAASGRIFGSYAMGWSRQAPGKERELGAAISYSGGSTYYADSVKGRFTMSRDNAKNTVYLQMHSLKPEDTAVYYCNVDRYYGYFSVRGGYWGQGTQGTVSS”, the “polyreactivity (PSR sort gate)” value is reported as “low polyreactivity”.

In the case of “QVQLVQSGGGLVQAGGSLRLSCAASGRIFRPNAMGWYRQAPGKERELVAAISSGGSTYYADSVKGRFTISRDNAKNTVYFQMYSLKPEDTAVDYCAADRSNRPYYRQGYDYWGQGTQVTVSS”, the “polyreactivity (PSR sort gate)” value is listed as “high polyreactivity”.

As to “QVQLVQSGGGLVQAGGSLRLSCAASGRIIGWYAMGWYRQAPGKERELVAAITWSGTSTYYADSVKGRFTISRDNAKNTVYLQMNSLKPEDTAVYYCAADSLPASAPTYYTTLESWGQGTQVTVSS”, the “polyreactivity (PSR sort gate)” value was “low polyreactivity”.

With “QVQLVQSGGGLVQAGGSLRLSCAASGSTNRYYAMGLYRQAPGKERELVAAITKSGGSTYYADSVKGRFTISRDNAKNTVYLQMNSLKPEDTAVVYCAAVRGWYSPALSEHDYWGQGTQVTVSS”, the “polyreactivity (PSR sort gate)” value is reported as “low polyreactivity”.

Regarding “QVQLVQSGGGLVQAGGSLRLSCADSGGTFRVYAMGSYRQAPGKERQLVASISWSSGITYYADSVKGRFTISRDNAKNTVYLQMNSLKPEDTAVYYCAAEGHVTYGAPGRLYRMGYWGQGTQVTVSS”, the “polyreactivity (PSR sort gate)” value is listed as “low polyreactivity”.

Consider “QVQLVQSGGGLVQAGGSLSLSCAASGSTFARNTMGWYRQAPGKERELVAAISYSGVTTYYADSVKGRFPISRDNEKNTVYLQMNSLKPEDTAVYYCAKLPYRRVDYGYWGQGTQVTVSS”, for which the “polyreactivity (PSR sort gate)” value is “high polyreactivity”.

Take “QVQLVQSGGGLVQAGGSLSLSCAASGSTFSTYAMGWYRQAPGKERELVATISKSGGSTYYSDSVKGRFTISRDNAKNTVYLQMNSLKPEDTAVYYCNARYQSRYFIYDYWGQGTQVTVSS”: the “polyreactivity (PSR sort gate)” value is “high polyreactivity”.

With “QVQLVQSGGGLVQAGGTLRLTCAASGSTYAVYAMGWYRQAPGKERELVATIRGRGGSTYYADSVKGRFTISRDYAKNTVYLQMNSLKPEDTAVYYCAADSYPSLGKYDSWGQGTQVTVSS”, the “polyreactivity (PSR sort gate)” value is “high polyreactivity”.

As to “QVQLVQSGGGLVQERGSLRLSCAASGRIFVKYTMGWSRQAPGKERELVAAIDFDTDSTYYADSVTGRFTISRDNAKNTVYLQMYSLKPEDTAVYYCATGYLYFTSYRYNYWGQGTQVTVSS”, the “polyreactivity (PSR sort gate)” value was “low polyreactivity”.

Regarding “QVQLVQSRGGLVQAGGSLRLSCAASGRTFVYNAMGWYRPAPGKERELVAAIDGGGDRTYYADSVKGRFTISRDNAKNTVYLQMNSLKPEDTAVYYCARDPGDTYYYSYPEGDYWGLGTQVTVSS”, the “polyreactivity (PSR sort gate)” value is “low polyreactivity”.

With “QVQLVVSGGGLVQAGGSLRLSCAASGRIFVINAMGWYRQAPGNERELVAAITWIGGTTYYADSVKGRFTISRDNAKNTVYLQLNSLKREDTAVYYCARQRSYGRSSYSYGYDYWGQGTQVTVSS”, the “polyreactivity (PSR sort gate)” value was “high polyreactivity”.

On to “QVQLVVSGGGLVQAGGSLRLSCAASGRTFPGNAMGGYRQAPGKERELVASINGRTTRTYYADSVKGRFTISRDNAKNTVYLQMNSLKPEDTAVYYCAADPPGYVYGKRYYWGQGTQVTVSS”, for which the “polyreactivity (PSR sort gate)” value was “high polyreactivity”.
